Results from article PMC3401101.

T1: DNA topoisomerase IIIα (UniProt Q13472)
T1 sequence: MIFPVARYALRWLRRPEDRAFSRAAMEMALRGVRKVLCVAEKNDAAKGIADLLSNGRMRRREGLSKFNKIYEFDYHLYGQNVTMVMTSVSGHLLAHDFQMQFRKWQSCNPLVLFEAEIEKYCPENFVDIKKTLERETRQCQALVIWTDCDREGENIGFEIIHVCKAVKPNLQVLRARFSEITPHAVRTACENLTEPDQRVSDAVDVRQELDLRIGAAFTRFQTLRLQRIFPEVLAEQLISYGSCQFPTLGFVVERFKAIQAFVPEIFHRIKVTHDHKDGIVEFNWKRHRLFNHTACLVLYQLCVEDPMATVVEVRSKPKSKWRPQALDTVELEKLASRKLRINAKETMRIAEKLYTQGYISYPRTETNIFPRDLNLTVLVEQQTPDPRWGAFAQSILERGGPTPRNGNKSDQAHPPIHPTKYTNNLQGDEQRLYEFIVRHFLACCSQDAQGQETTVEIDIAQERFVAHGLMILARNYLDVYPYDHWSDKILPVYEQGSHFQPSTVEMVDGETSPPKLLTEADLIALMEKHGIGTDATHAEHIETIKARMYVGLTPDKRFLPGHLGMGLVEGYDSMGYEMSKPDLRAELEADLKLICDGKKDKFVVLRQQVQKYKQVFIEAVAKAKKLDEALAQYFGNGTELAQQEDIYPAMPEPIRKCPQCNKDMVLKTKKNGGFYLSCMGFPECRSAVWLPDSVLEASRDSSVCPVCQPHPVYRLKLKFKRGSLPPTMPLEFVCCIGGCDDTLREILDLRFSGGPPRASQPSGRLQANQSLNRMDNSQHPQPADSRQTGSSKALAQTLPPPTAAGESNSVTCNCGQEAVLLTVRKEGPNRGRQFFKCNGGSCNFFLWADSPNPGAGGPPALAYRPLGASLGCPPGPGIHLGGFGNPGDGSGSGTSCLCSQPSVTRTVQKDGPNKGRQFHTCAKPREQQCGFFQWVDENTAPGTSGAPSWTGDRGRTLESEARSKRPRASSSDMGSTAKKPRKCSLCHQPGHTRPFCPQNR

B1: RMI1 (natural protein)
chain: MNVTSIALRAETWLLAAWHVKVPPMWLEACINWIQEENNNVNLSQAQMNKQVFEQWLLTDLRDLEHPLLPDGILEIPKGELNGFYALQINSLVDVSQPAYSQIQKLRGKNTTNDLVTAEAQVTPKPWEAKPSRMLMLQLTDGIVQIQGMEYQPIPILHSDLPPGTKILIYGNISFRLGVLLLKPENVKVLGGEVDALLEEYAQEKVLARLIGEPDLVVSVIPNNSNENIPRVTDVLDPALGPSDEELLASLDENDELTANNDTSSERCFTTGSSSNTIPTRQSSFEPEFVISPRPKEEPSNLSIHVMDGELDDFSLEEALLLEETVQKEQMETKELQPLTFNRNADRSIERFSHNPNTTNNFSLTCKNGNNNWSEKNVSEQMTNEDKSFGCPSVRDQNRSIFSVHCNVPLAHDFTNKEKNLETDNKIKQTSSSDSHSLNNKILNREVVNYVQKRNSQISNENDCNLQSCSLRSSENSINLSIAMDLYSPPFVYLSVLMASKPKEVTTVKVKAFIVTLTGNLSSSGGIWSITAKVSDGTAYLDVDFVDEILTSLIGFSVPEMKQSKKDPLQYQKFLEGLQKCQRDLIDLCCLMTISFNPSLSKAMVLALQDVNMEHLENLKKRLNK

Columns and labels:
[1] = target: T1, DNA topoisomerase IIIα
[2] = target: T1, DNA topoisomerase IIIα; remark: listed apart in the source

Molecule	TopoIIIα decatenase activity with BLM (33-66 nM) in the presence of RPA (100 nM), against TopoIIIα alone [1]	TopoIIIα-mediated decatenation of single-stranded catenane with both BLM (17 nM) and RMI1 (75-150 nM) in the presence of RPA (100 nM), against TopoIIIα alone [2]
BLM (from UniProt P54132 1-1417) (enzyme)	1.5 fold	
B1		30 fold
